Reference: patent publication EP4806922A2 (Lyvgen Biopharma Holdings Limited, dated 2026)

B1: Ly2949 (BCMA/CD3/CD137) (other)
heavy 1: QVQLVQSGAEVKKPGASVKVSCKASGYTFTNHIIHWVRQAPGQGLEWMGYINPYPGYHAYNEKFQGRATMTSDTSTSTVYMELSSLRSEDTAVYYCARDGYYRDTDVLDYWGQGTLVTVSSASTKGPSVFPLAPSSKSTSGGTAALGCLVKDYFPEPVTVSWNSGALTSGVHTFPAVLQSSGLYSLSSVVTVPSSSLGTQTYICNVNHKPSNTKVDKKVEPKSCGGGGSGGGGSGGGGSGGGGSEVQLVESGGGLVQPGGSLRLSCAASGFTFSTYAMNWVRQAPGKGLEWVGRIRSKYNNYATYYADSVKGRFTISRDDSKNSLYLQMNSLKTEDTAVYYCVRHGNFGNSYVSWFAYWGQGTLVTVSSGGGGSDKTHTCPPCPAPELLGPSVFLFPPKPKDTLMISRTPEVTCVVVDVSHEDPEVKFNWYVDGVEVHNAKTKPREEQYNSTYRVVSVLTVLHQDWLNGKEYKCKVSNKALGAPIEKTISKAKGQPREPQVYTLPPSREEMTKNQVSLWCLVKGFYPSDIAVEWESNGQPENNYKTTPPVLDSDGSFFLYSKLTVDKSRWQQGNVFSCSVMHEALHNHYTQKSLSLSPGKGGGGSGGGGSGGGGSGGGGSQVQLVQSGAEVKKPGASVKVSCKASGYTFAGFEMHWVRQAPGQGLEWMGAIDPKTGGTDYNQKFKDRVTMTRDTSISTAYMELSRLRSDDTAVYYCARDLGYFDVWGQGTLVTVSS
heavy 2: QVQLVQSGAEVKKPGASVKVSCKASGYTFTNHIIHWVRQAPGQGLEWMGYINPYPGYHAYNEKFQGRATMTSDTSTSTVYMELSSLRSEDTAVYYCARDGYYRDTDVLDYWGQGTLVTVSSASTKGPSVFPLAPSSKSTSGGTAALGCLVKDYFPEPVTVSWNSGALTSGVHTFPAVLQSSGLYSLSSVVTVPSSSLGTQTYICNVNHKPSNTKVDKKVEPKSCGGGGSGGGGSGGGGSGGGGSQAVVTQEPSLTVSPGGTVTLTCRSSTGAVTTSNYANWVQQKPGQAPRGLIGGTNKRAPWTPARFSGSLLGGKAALTITGAQAEDEADYYCALWYSNLWVFGGGTKLTVLGGGGSDKTHTCPPCPAPELLGPSVFLFPPKPKDTLMISRTPEVTCVVVDVSHEDPEVKFNWYVDGVEVHNAKTKPREEQYNSTYRVVSVLTVLHQDWLNGKEYKCKVSNKALGAPIEKTISKAKGQPREPQVYTLPPSREEMTKNQVSLSCAVKGFYPSDIAVEWESNGQPENNYKTTPPVLDSDGSFFLVSKLTVDKSRWQQGNVFSCSVMHEALHNRFTQKSLSLSPGKGGGGSGGGGSGGGGSGGGGSDIQMTQSPSSLSASVGDRVTITCRASQDIRSNLNWYQQKPGGAVKLLIYYTSRLHSGVPSRFSGSGSGTDYTLTISSLQPEDFATYFCQQSEKLPRTFGGGTKVEIR
light: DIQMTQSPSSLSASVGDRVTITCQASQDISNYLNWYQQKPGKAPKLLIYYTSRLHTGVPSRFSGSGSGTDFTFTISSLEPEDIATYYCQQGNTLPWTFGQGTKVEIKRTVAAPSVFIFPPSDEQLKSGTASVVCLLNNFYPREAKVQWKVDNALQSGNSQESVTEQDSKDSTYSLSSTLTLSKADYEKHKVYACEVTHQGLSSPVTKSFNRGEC
notes: Multi-specific (tri-specific) antibody with three different chains HC1, HC2, LC1; also called BCMA(a) /CD3 /CD137; anti-BCMA/CD3/CD137 multi-specific antibody
B2: Ly3096 (BCMA/CD3/CD137) (other)
heavy 1: QLQLQESGPGLVKPSETLSLTCTVSGGSISSGSYFWGWIRQPPGKGLEWIGSIYYSGITYYNPSLKSRVTISVDTSKNQFSLKLSSVTAADTAVYYCARHDGAVAGLFDYWGQGTLVTVSSASTKGPSVFPLAPSSKSTSGGTAALGCLVKDYFPEPVTVSWNSGALTSGVHTFPAVLQSSGLYSLSSVVTVPSSSLGTQTYICNVNHKPSNTKVDKKVEPKSCGGGGSGGGGSGGGGSGGGGSEVQLVESGGGLVQPGGSLRLSCAASGFTFSTYAMNWVRQAPGKGLEWVGRIRSKYNNYATYYADSVKGRFTISRDDSKNSLYLQMNSLKTEDTAVYYCVRHGNFGNSYVSWFAYWGQGTLVTVSSGGGGSDKTHTCPPCPAPELLGPSVFLFPPKPKDTLMISRTPEVTCVVVDVSHEDPEVKFNWYVDGVEVHNAKTKPREEQYNSTYRVVSVLTVLHQDWLNGKEYKCKVSNKALGAPIEKTISKAKGQPREPQVYTLPPSREEMTKNQVSLWCLVKGFYPSDIAVEWESNGQPENNYKTTPPVLDSDGSFFLYSKLTVDKSRWQQGNVFSCSVMHEALHNHYTQKSLSLSPGKGGGGSGGGGSGGGGSGGGGSQVQLVQSGAEVKKPGASVKVSCKASGYTFAGFEMHWVRQAPGQGLEWMGAIDPKTGGTDYNQKFKDRVTMTRDTSISTAYMELSRLRSDDTAVYYCARDLGYFDVWGQGTLVTVSS
heavy 2: QLQLQESGPGLVKPSETLSLTCTVSGGSISSGSYFWGWIRQPPGKGLEWIGSIYYSGITYYNPSLKSRVTISVDTSKNQFSLKLSSVTAADTAVYYCARHDGAVAGLFDYWGQGTLVTVSSASTKGPSVFPLAPSSKSTSGGTAALGCLVKDYFPEPVTVSWNSGALTSGVHTFPAVLQSSGLYSLSSVVTVPSSSLGTQTYICNVNHKPSNTKVDKKVEPKSCGGGGSGGGGSGGGGSGGGGSQAVVTQEPSLTVSPGGTVTLTCRSSTGAVTTSNYANWVQQKPGQAPRGLIGGTNKRAPWTPARFSGSLLGGKAALTITGAQAEDEADYYCALWYSNLWVFGGGTKLTVLGGGGSDKTHTCPPCPAPELLGPSVFLFPPKPKDTLMISRTPEVTCVVVDVSHEDPEVKFNWYVDGVEVHNAKTKPREEQYNSTYRVVSVLTVLHQDWLNGKEYKCKVSNKALGAPIEKTISKAKGQPREPQVYTLPPSREEMTKNQVSLSCAVKGFYPSDIAVEWESNGQPENNYKTTPPVLDSDGSFFLVSKLTVDKSRWQQGNVFSCSVMHEALHNRFTQKSLSLSPGKGGGGSGGGGSGGGGSGGGGSDIQMTQSPSSLSASVGDRVTITCRASQDIRSNLNWYQQKPGGAVKLLIYYTSRLHSGVPSRFSGSGSGTDYTLTISSLQPEDFATYFCQQSEKLPRTFGGGTKVEIR
light: SYVLTQPPSVSVAPGQTARITCGGNNIGSKSVHWYQQPPGQAPVVVVYDDSDRPSGIPERFSGSNSGNTATLTISRVEAGDEAVYYCQVWDSSSDHVVFGGGTKLTVLGQPKAAPSVTLFPPSSEELQANKATLVCLISDFYPGAVTVAWKGDSSPVKAGVETTTPSKQSNNKYAASSYLSLTPEQWKSHRSYSCQVTHEGSTVEKTVAPTECS
notes: Multi-specific (tri-specific) antibody with three different chains HC1, HC2, LC1; also called BCMA(b) /CD3 /CD137
B3: Ly3106 (BCMA/CD3/PD-L1) (other)
heavy 1: QLQLQESGPGLVKPSETLSLTCTVSGGSISSGSYFWGWIRQPPGKGLEWIGSIYYSGITYYNPSLKSRVTISVDTSKNQFSLKLSSVTAADTAVYYCARHDGAVAGLFDYWGQGTLVTVSSASTKGPSVFPLAPSSKSTSGGTAALGCLVKDYFPEPVTVSWNSGALTSGVHTFPAVLQSSGLYSLSSVVTVPSSSLGTQTYICNVNHKPSNTKVDKKVEPKSCGGGGSGGGGSGGGGSGGGGSEVQLVESGGGLVQPGGSLRLSCAASGFTFSTYAMNWVRQAPGKGLEWVGRIRSKYNNYATYYADSVKGRFTISRDDSKNSLYLQMNSLKTEDTAVYYCVRHGNFGNSYVSWFAYWGQGTLVTVSSGGGGSDKTHTCPPCPAPELLGPSVFLFPPKPKDTLMISRTPEVTCVVVDVSHEDPEVKFNWYVDGVEVHNAKTKPREEQYNSTYRVVSVLTVLHQDWLNGKEYKCKVSNKALGAPIEKTISKAKGQPREPQVYTLPPSREEMTKNQVSLWCLVKGFYPSDIAVEWESNGQPENNYKTTPPVLDSDGSFFLYSKLTVDKSRWQQGNVFSCSVMHEALHNHYTQKSLSLSPGKGGGGSGGGGSGGGGSGGGGSQVQLVQSGAEVKKPGASVKVSCKASGYTFTDFWMSWVRQAPGQGLEWMGQIYPNTGTTHSNEKFKGRVTMTRDTSTSTVYMELSSLRSEDTAVYYCARSYHISTTPNWFAYWGQGTLVTVSS
heavy 2: QLQLQESGPGLVKPSETLSLTCTVSGGSISSGSYFWGWIRQPPGKGLEWIGSIYYSGITYYNPSLKSRVTISVDTSKNQFSLKLSSVTAADTAVYYCARHDGAVAGLFDYWGQGTLVTVSSASTKGPSVFPLAPSSKSTSGGTAALGCLVKDYFPEPVTVSWNSGALTSGVHTFPAVLQSSGLYSLSSVVTVPSSSLGTQTYICNVNHKPSNTKVDKKVEPKSCGGGGSGGGGSGGGGSGGGGSQAVVTQEPSLTVSPGGTVTLTCRSSTGAVTTSNYANWVQQKPGQAPRGLIGGTNKRAPWTPARFSGSLLGGKAALTITGAQAEDEADYYCALWYSNLWVFGGGTKLTVLGGGGSDKTHTCPPCPAPELLGPSVFLFPPKPKDTLMISRTPEVTCVVVDVSHEDPEVKFNWYVDGVEVHNAKTKPREEQYNSTYRVVSVLTVLHQDWLNGKEYKCKVSNKALGAPIEKTISKAKGQPREPQVYTLPPSREEMTKNQVSLSCAVKGFYPSDIAVEWESNGQPENNYKTTPPVLDSDGSFFLVSKLTVDKSRWQQGNVFSCSVMHEALHNRFTQKSLSLSPGKGGGGSGGGGSGGGGSGGGGSDIQMTQSPSSLSASVGDRVTITCKASQNVYKKLEWYQQKPGKVPKVLIYHTNILQTGVPSRFSGSGSGTDYTLTISSLQPEDVATYYCYQWNSGPTFGGGTKVEIK
light: B2 light
notes: Multi-specific (tri-specific) antibody with three different chains HC1, HC2, LC1; also called BCMA(b) /CD3 /PD-L1

Columns and labels:
Experiment in all cases: FCM or ELISA, graded summary
human BCMA protein = target: T1, human BCMA protein (human, UniProt Q02223 1-54)
T1 construct: also called human BCMA expressing NCI-H929 cells; human BCMA overexpressing HEK293 cells
T1 sequence (looked up): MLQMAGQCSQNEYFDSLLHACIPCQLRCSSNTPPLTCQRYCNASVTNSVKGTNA

human CD3D/E protein = target: T2, human CD3D/E protein (human, UniProt P04234 22-105; P07766 23-126)
T2 construct: also called human CD3 expressing Jurkat cells

human CD137 protein = target: T3, human CD137 protein (human, UniProt Q07011 24-186)
T3 construct: also called human CD137 expressing CHO cells

human PD-L1 protein = human PD-L1 protein (human, UniProt Q9NZQ7 19-238)
Sequence of human PD-L1 protein (Q9NZQ7 19-238 limits assumed): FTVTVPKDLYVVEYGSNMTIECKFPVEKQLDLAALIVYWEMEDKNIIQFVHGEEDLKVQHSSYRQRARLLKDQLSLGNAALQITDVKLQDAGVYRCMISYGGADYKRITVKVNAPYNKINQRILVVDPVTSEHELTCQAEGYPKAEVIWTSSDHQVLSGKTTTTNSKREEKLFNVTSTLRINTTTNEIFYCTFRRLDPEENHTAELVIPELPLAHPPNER

T2 sequence (P04234 22-105, chain 1 of 2): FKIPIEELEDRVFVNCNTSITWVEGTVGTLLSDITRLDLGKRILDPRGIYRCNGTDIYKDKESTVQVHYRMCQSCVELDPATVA
T2 sequence (P07766 23-126, chain 2 of 2): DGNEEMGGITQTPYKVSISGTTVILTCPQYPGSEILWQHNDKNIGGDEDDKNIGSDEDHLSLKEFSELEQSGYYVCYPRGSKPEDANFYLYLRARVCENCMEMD
T3 sequence (Q07011 24-186 limits assumed): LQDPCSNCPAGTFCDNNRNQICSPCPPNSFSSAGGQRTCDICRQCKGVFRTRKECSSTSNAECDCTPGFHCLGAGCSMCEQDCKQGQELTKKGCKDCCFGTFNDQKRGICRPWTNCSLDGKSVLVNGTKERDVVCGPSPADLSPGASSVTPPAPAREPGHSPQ

| Binder | binding result (human BCMA protein) | binding result (human CD3D/E protein) | binding result (human CD137 protein) | binding result (human PD-L1 protein) |
| --- | --- | --- | --- | --- |
| B1 | binds | binds | binds |  |
| B2 |  | binds | binds |  |
| B3 |  | binds |  | binds |
